Test results published in the DeepSol protein solubility set.

assay: soluble on expression in E. coli; label from the status in PepcDB or PDB records

Sequence | soluble on expression in E. coli
CHEASAIGMKDTIGVGKGTVIFDDFEEADAIFVIGQNPGTNHPRMLEPLREAVKRGAQVICLNPLKERGLERFQNPQMPIEMLSNGSEPTNTAYLRPALGGDMAVFRGIAKFLLQWEREALQNGGKAVFDREFIKQHTIGIDEYLAEVDATSWEHIAEQSGLDLSEIEMVASMYRRAERVIMCWAMGLTQHRHSVPTIKEVANVQMLRGNVGKPGAGLSPVRGHSNVQGDRTMGIDEKPSDLLLDRIESRFNFD | not soluble
CPRMGHVFPLETRPYNQGSRLTAYELVYDKIPSTLITDSSIAYRIRTSPIPIKAAFVGADRIVRNGDTANKIGTLQLAVICKQFGIKFFVVAPKTTIDNVTETGDDIIVEERNPEEFKVVTGTVINPENGSLILNESGEPITGKVGIAPLEINVWNPAFDITPHELIDGIITEEGVFTKNSSGEFQLESLF | soluble
CSEVNVVKERPKTDEHKSYSCSFKGCTDVELVAVICPYCEKNFCLRHRHQSDHDCEKLEVAKPRMAATQKLVR | soluble
CSPVRERRLEHQLEPGDTLAGLALKYGVTMEQIKRANRLYTNDSIFLKKTLYIPILTEPRDLFN | soluble
DAGQANDDALRVALQFKPVADFSPYSDDAVLNLRMGAVETLVTLDEDGKPKPVLAEKWEMKDDRTAVLTLRKDVSFHDGSKLTGEVVKNALDHALSATTRPKGLGKADLKVEATGESEVTITAPEADPILVQRLTDPGAAILSKDAYAGENPDPFNHGTGPFKLVKKESDGSVSAEAFADYWNGTPETSALKVSFIEDGAARANAFRAGDFDVIKGVPVVALPELSDAHVTDVHLPRATLLHLNAEKGVFADAKLRTAVAGAIKTDAIVDKIYEGKANKTEGSLFNLDAQWAQKAKPLAGAPADATIGKGKTVRLATWDSRAELPETANLIADQLRALGFNVDITVADYASLENRLLDGSFDAVIGSRSYMIGAGDPVAFLDTDFTCDGSYNLSRLCDPEIDKKIAAAKSEKDLDTRHKD | not soluble
DCYCRIPACIAGEAAYGTCIYQGALWAFCC | soluble
DEAWLTEMLKRVNVLPEALVLTQAANESAWGTSRFATQANNLFGQWCYKQGCGIVPAQRAAGKTHEVQKFDSVQQSIHGYFMNVNRNPAYADLRDIRAMLADKHKNLFSVATASELTHGLLSYSERGIAYVNDLRSMIRHNNAYWTQ | not soluble
DELCVVCGDKATGYHYRCITCEGCKGFFRRTIQKNLHPSYSCKYEGKCVIDKVTRNQCQECRFKKCIYVGMATDLVLDDSKRLAKRKLIEENREKRRREELEK | soluble
DELLALASIYDGDEFRKAESVQGGETRIYLDLPQNFKIFVSGNSNECLQNSGFEYTICFLPPLVLNFELPPDYPSSSPPSFTLSGKWLSPTQLSALCKHLDNLWEEHRGSVVLFAWMQFLKEETLAYLRIRLLTKPERKLSWLLPPLSNN | not soluble
DESSKNGLMDMVSQGLNAESSPLTELLTSQLPVSTEQAAGGSSALIALAQSQLSQQNSTELQSLIPGLSNLKGAQSLLGNIESLSAVQSAFN | not soluble
DHSARPKLGIDLQGGTRVTLVPQGQNPTEDQLAQAKSILENRVNGMGVSGASVVSDGNTLVITVPGEDTTQARALGQTSQLLFRPVAKPDAPDTTKLLDAMKEMANRWVEVGVLTPQEANDALSNTAKALAQSEGKKPEDAKAPTVTAKEPKEPANSIESEQLRNKVLEVMKKDRQSTDATTQLSASSLLKCDDTPDPLQGTDDPTKPLVACDPSSGQVYVLSPAPLLQGETDQANGKRLTGNEIDTNRPITGGLNPQTGQMEIGFSFKSDNGDQGSATWAKLTQEYLQKQVAITLDSK | not soluble
DILLTQSPAILSVSPGERVSFSCRASQSIGTDIHWYQQRTNGSPRLLIKYASESISGIPSRFSGSGSGTDFTLSINSVESEDIANYYCQQSNRWPFTFGSGTKLEIKRADAAPTVSIFPPSSEQLTSGGASVVCFLNNFYPKDINVKWKIDGSERQNGVLNSWTDQDSKDSTYSMSSTLTLTKDEYERHNSYTCEATHKTSTSPIVKSFNRN | soluble
DITGIATGYRDLDHMTTGLHEEELIILAARPAVGKTAFALNIAQNIGTKLDKTVAIFSLEMGAESLVDRMLAAEGLVESHSIRTGQLTDEEWQKYTIAQGNLANASIYIDDTPGIRITEIRSRSRKLAQETGNLGLILIDYLQLITGTGRENRQQEVSEISRQLKILAKELKVPVIALSQLSRGVEQRQDKRPVLSDI | not soluble
DKPLSNMKILTLGKLSRNKDEVKAMIEKLGGKLTGTANKASLCISTKKEVEKMNKKMEEVKEANIRVVSEDFLQDVSASTKSLQELFLAHILSSWGAEVK | soluble
DLKDPIKISIPRYVLCGQGKDAHFEFEVKITVLDETWTVFRRYSRFREMHKTLKLKYAELAALEFPPKKLFGNKDERVIAERRSHLEKYLRDFFSVMLQSATSPLHINKVGLTLSKHTICEFSPFFKKGVFDYS | soluble
DNAVGPPASAPPPPSVPVAKALSRTLAPTAEFTGFLAAPETVELRSRVGGTLDAISVPEGRLVSRGQLLFQIDPRPFEVALDTAVAQLRQAEVLARQAQADFDRIQRLVASGAVSRKNADDVTATRNARQAQMQSAKAAVAAARLELSWTRITAPIAGRVDRILVTRGNLVSGGVAGNATLLTTIVSHNPMYVYFDIDEATWLKALRHTRSDKNPPVVNMGLTTDNGLPYQGVLDFMGNQMNRSTGTIRARAVIPDPDGMLSPGLFARISLPIGEPRETVLIDDLAVSADQGKNYVLIVGKENQVEYRPVELGQMVD | not soluble
DNYNVEGASASFAVGYERGVKQLAEGLLLSIYAELDWAAFRSVSDKRSLPFSDDSAQNRFRFLAGAGVHKRLNPNIELYARGAVGASFFPENNGSSSRELKGGFNVSLRVGLSCSLRDNFAVFIDTGTSDIVRGGLALMW | not soluble
DPQPDPLQPDVYLLVNARAAHTNGEESINMDAEDFEDRVHSLAMLVFDSNTGEKVAEHFSSSIGSGTSTYVFTVKLKPGQRD | not soluble
DRKQQERELTETNSVLSSVLDNMPVGILIEDADRTITTANKKLLDILDVSLTPSGLIGCEYAEIAETLKTQFADPDQFNETVNKIHSTRDAVFDEELLMADGRILARSYVSYSLPDGTGNIWLYRDIT | not soluble
DTILCFGDCRPLHKEAKRWAKSKGIRFLAFEEGYLRPQFITVEEGGVNAYSSLPRDPDFYRKLPDMPAPHVENLKPSTMKRIGHAMWYYLMGWHYRHEFPRYRHHKSFSPWYEARCWVRAYWRKQLYKVTQRKVLPRLMNELDQRYYLAVLQVYNDSQIRNHSNYNDVRDYINEVMYSFSRKAPKESYLVIKHHPMDRGHRLYRPLIKRLSKEYGLDERVIYVHDLPMPELLRHAKAVVTINSTAGISALIHNKPLKVMGNALYDIKGLTYQGHLHQFWQADFKPDMKLFKKFRGYLLVKTQVNGGYY | not soluble
DVPLTPSQFAKAKSENFDKKVILSNLNKPHALLWGPDNQIWLTERATGKILRVNPESGSVKTVFQVPEIVNDADGQNGLLGFAFHPDFKNNPYIYISGTFKNPKSTDKELPNQTIIRRYTYNKSTDTLEKPVDLLAGLPSSKDHQSGRLVIGPDQKIYYTIGDQGRNQLAYLFLPNQAQHTPTQQELNGKDYHTYMGKVLRLNLDGSIPKDNPSFNGVVSHIYTLGHRNPQGLAFTPNGKLLQSEQGPNSDDEINLIVKGGNYGWPNVAGYKDDSGYAYANYSAAANKSIKDLAQNGVKVAAGVPVTKESEWTGKNFVPPLKTLYTVQDTYNYNDPTCGEMTYICWPTVAPSSAYVYKGGKKAITGWENTLLVPSLKRGVIFRIKLDPTYSTTYDDAVPMFKSNNRYRDVIASPDGNVLYVLTDTAGNVQKDDGSVTNTLENPGSLIKFTYKAK | soluble
DVQLLESGPGLVAPSQSLSITCTVSGFSLTNYGVDWVRQPPGKGLEWVGVIWSGGSTNYNSALMSRLSISKDNSKSQVFLKMNSLQTDDTAVYYCAKHWGGYYIPYGMDHWGQGTTVTVSSASTKGPSVFPLAPSSKSTSGGTAALGCLVKDYFPEPVTVSWNSGALTSGVHTFPAVLQSSGLYSLSSVVTVPSSSLGTQTYICNVNHKPSNTKVDKKVEPKSCDKTHT | soluble
DYKDDDDKVKLTCYQNGVSFTGGKAISEAKAASSQACQELCEKDAKCRFFTLASGKCSLFADDAALRPTKSDGAVSGNKRCILLED | soluble
